Experimental data taken from patent US20230082287A1, “METHODS OF TREATING AN INFLAMMATORY OR OBSTRUCTIVE AIRWAY DISEASE USING ANTI-TSLP ANTIBODY” (Novartis AG, priority 2020, published 2023).
Where two headings read alike, the source gives them in different places.

Assays:
[1] = system: late asthmatic response (LAR); assay: Hill equation simulation of CSJ117 dose-response (LAR efficacy); parameters: species or system human; details: for Predicted efficacy: range over Emax scenarios; for ED50: Dose = 4 mg, E = 47.6%, Hill slope n = 1
Description: Simulation of Dose-Response Curves of CSJ117 from Doses Ranging from 0.5 to 8 mg:
% Efficacy of CSJ117 in PoC study compared to placebo was calculated using following formula: % E=[(B−A)/B]×100, where, E=Efficacy; A and B are LAR measured by max fall % FEV1 value in treated and placebo groups, respectively.
Maximum efficacy (Emax) of CSJ117 is unknown at this time and three potential values of Emax are possible:
From Emax and ED50 in each scenario above, a dose-response curve was generated using Hill equation to assess range of efficacy values resulting from 0.5 to 8 mg once daily dose of CSJ117 (FIGS. 6 and 7). Efficacy due to 0.5 mg and 8 mg once daily dose of CSJ117 is predicted to range from 10-35% and 65-88% of maximum effect, respectively. As visible in plots of FIGS. 6 and 7, the planned dose range of 0.5, 1, 2, 4, and 8 mg o.d. of CSJ117 during Ph2B (Example 4) is expected to adequately describe the dose-response for CSJ117.

[2] = Phase 2a bronchoprovocation study: safety and tolerability; type: in vivo; details: 12 weeks
From the text: (§1) This was a non-confirmatory, randomized, subject- and investigator-blinded, placebo-controlled, parallel-design, multi-center bronchoprovocation study. […] Two sequential dose cohorts were enrolled for this study. • Cohort 1: 24 subjects (12 active and 12 placebo) • Cohort 2a: 4 subjects (3 active and 1 placebo)
No adverse events (AE) imbalance observed across treatment groups. […] No subject discontinued study drug due to an adverse event. The most frequent treatment-emergent adverse events were headache, nasopharyngitis, and oropharyngeal pain.

[3] = in vivo
Description: Single dose of 1 mg (Cohort 1), 3 mg (Cohort 2), 9 mg (Cohort 3), 32 mg (Cohort 4), 64 mg (Cohort 5), 160 mg (Cohort 6) or placebo was administered via inhalation. First-in-human study was conducted in 51 healthy volunteers (HVs), of which 37 subjects were exposed to CSJ117 and 12 to placebo.
The PK analysis set for the FIH SAD Study included 37 subjects. PK samples were collected up to 28 days post dose.

[4] = GLP monkey toxicity study: dose and exposure multiples versus human 4 mg QD dose; type: in vivo, cynomolgus monkey
From the text: The rationale for a 12-week study treatment duration was based on the following: (i) the 12-week treatment period was warranted from a safety perspective given the data from the 13-week cynomolgus monkey toxicity study; (ii) the 12-week dosing period was anticipated to provide greater information on the PK profile of CSJ117 in humans (as compared to a shorter study duration); (iii) completing 12-weeks of dosing prior to dose escalation(s) provided greater safety information, as systemic exposure is expected to have achieved steady state; (iv) 12 weeks was expected to be sufficient duration to allow assessment of PD effects in the AIC.
Lung weight scaling was selected for the HED calculation due to the CSJ117-related changes in the respiratory tract and the lack of significant systemic side effects in the monkey toxicity studies. • Exposure multiples were also calculated to compare the observed systemic exposure in monkeys with the systemic exposure in humans, based on the observed single dose PK data in healthy subjects, assuming either linear or nonlinear PK. For multiple daily inhalations in humans, assuming linear and time-independent PK (i.e., a 2.4 fold accumulation ratio), the estimated human systemic exposure at steady state for a 4 mg dose was 948-fold below the monkey Day 91 systemic exposure.

[5] = First-in-human single ascending dose study: safety and tolerability; type: in vivo
Description: The safety, tolerability and PK of CSJ117 have been evaluated in healthy volunteers (HV) in a single ascending dose (SAD) study.
A first-in-human, randomized, subject-blind, placebo controlled, single ascending dose study was conducted to assess the safety, tolerability and pharmacokinetics of CSJ117 in adult healthy subjects. Single dose of 1 mg (Cohort 1), 3 mg (Cohort 2), 9 mg (Cohort 3), 32 mg (Cohort 4), 64 mg (Cohort 5), 160 mg (Cohort 6) or placebo was administered via inhalation.

[6] = human, in vivo, inhaled or intranasal, 32 mg
Description: (§2) In addition, the PK analysis set for the healthy Japanese SAD Study included 18 subjects, six subjects per single inhaled dose of 9, 16 and 32 mg administered via Concept 1 device.

[7] = Healthy Japanese SAD study: serum CSJ117 pharmacokinetics; details: cross-study comparison at 9 and 32 mg
Description: as §2

[8] = system: allergen inhalation challenge (AIC) in subjects with mild atopic asthma; assay: Phase 2a allergen bronchoprovocation study (LAR, EAR, FeNO); type: in vivo, human
From the text: CSJ117, as an inhaled Fab targeting TSLP, offers the potential to be an efficacious therapy for severe asthma with a favorable safety and tolerability profile. This study used inhaled allergen bronchoprovocation testing as a model for allergic asthma, in an effort to predict CSJ117 efficacy in the eventual severe asthma patient population. As a model for allergic asthma, standardized inhaled allergen bronchoprovocation testing can induce the acute and some of the more chronic features of asthma in human subjects with mild atopic asthma. In sensitized subjects, inhalation of a relevant allergen results in acute bronchoconstriction (the early asthma response or EAR [EAR defined as ≥20% fall in forced expiratory volume in 1 second (FEV1) between 0-2 hours after inhalation of allergen] Boulet et al 2007). In approximately 50% of subjects the EAR is followed by an inflammatory airway response with prolonged airway narrowing (the late asthma response or LAR [LAR defined as ≥15% fall in FEV1 between 3-7 hours after inhalation of allergen] Boulet et al 2007). In general, inhibition of the LAR in the allergen bronchoprovocation model is a good predictor of clinical efficacy in the moderate to severe asthma patient population (Diamant et al 2013). The objectives of this allergen bronchoprovocation study were to characterize the safety, tolerability, pharmacokinetics (PK) and pharmacodynamic (PD) effects of CSJ117 in subjects with mild atopic asthma over 12 weeks of treatment to determine if further clinical development is warranted.
as §1
There was only one active dose used in the study, i.e. CSJ117 4 mg used for both Cohort 1 & 2a. Placebo subjects from all cohorts were pooled for analyses.
For all cohorts, the study consisted of a 35-day screening period, a baseline evaluation, a 12-week treatment period (consisting of a single dose on Day 1, safety evaluation Days 1-3 and commencement of QD dosing on Day 3) and a 30-day follow up period (FIG. 3).
On Day 1 (Visit 101) of the treatment period, after completion of all pre-dose assessments, subjects were randomized and received a single dose of CSJ117 or placebo in the morning and then underwent safety assessments, observation and PK sampling in-clinic for a period of 8 hours post-dose. On Day 2 (Visit 102), the subject returned to the clinic for evaluation and PK sampling. On Day 3 (Visit 103), the subjects returned to clinic for evaluation. On Day 3 (Visit 103) subjects took an inhaled dose of CSJ117 or placebo in the clinic. For the remaining duration of the 12-week treatment period, subjects took daily inhaled doses of CSJ117 or placebo, in the clinic on study visit days or at home. […]
Dog, cat, horse, mouse, cattle, rat and bird allergens were included in the challenge. Table 6 and Table 7 show the fall in FEV1 values and percentages, respectively, after the allergen challenges. […]
The early asthmatic response (EAR) after an allergen inhalation challenge on Day 42 and Day 84 was assessed by measuring the (1) area under the curve (AUC) time-adjusted percent fall in the FEV1, (2) maximum percent fall in the FEV1, and (3) minimum absolute FEV1 between 0 and 2 hours after […].

[9] = human, inhaled or intranasal, 1 mg
[10] = human, inhaled or intranasal, 3 mg
[11] = human, inhaled or intranasal, 9 mg
[12] = human, inhaled or intranasal, 32 mg
[13] = human, inhaled or intranasal, 64 mg
[14] = human, inhaled or intranasal, 160 mg
[15] = Day 42, 4 mg QD inhaled (N = 12)
[16] = Day 84, 4 mg QD inhaled (N = 13)

B1: CSJ117: potent neutralizing antibody fragment (Fab) directed against human TSLP; heavy chain SEQ ID NO: 9, light chain SEQ ID NO: 19 (antibody)
heavy: EVQLVESGGGLVKPGGSLRLSCAASGFTFSDYWMHWVRQAPGKGLEWVGHIKSKTDAGTTDYAAPVKGRFTISRDDSKNTLYLQMNSLKTEDTAVYYCAREIYYYAFDSWGQGTLVTVSSASTKGPSVFPLAPSSKSTSGGTAALGCLVKDYFPEPVTVSWNSGALTSGVHTFPAVLQSSGLYSLSSVVTVPSSSLGTQTYICNVNHKPSNTKVDKRVEPKSC
light: SYELTQPLSVSVALGQTARITCSGDNIGSKYVHWYQQKPGQAPVLVIYGDNERPSGIPERFSGSNSGNTATLTISRAQAGDEADYYCQAADWVDFYVFGGGTKLTVLGQPKAAPSVTLFPPSSEELQANKATLVCLISDFYPGAVTVAWKADSSPVKAGVETTTPSKQSNNKYAASSYLSLTPEQWKSHRSYSCQVTHEGSTVEKTVAPTECS
Which results are given for B1?
Predicted efficacy ([1]; 0.5 mg once daily dose): 10-35 % of maximum effect; Predicted efficacy ([1]; 8 mg once daily dose): 65-88 % of maximum effect; ED50 ([1]; Scenario 1: Emax 100%): 4.4 mg; ED50 ([1]; Scenario 2: Emax 80%): 2.3 mg; ED50 ([1]; Scenario 3: Emax 60%): 1.0 mg; Severe or serious adverse events ([2]; 4 mg QD): No subject developed a severe or serious adverse event; Safety and tolerability ([2]; mild asthmatics, 4 mg QD): safe and well tolerated; rate of moderately severe adverse events ([2]; subjects receiving CSJ117 4 mg QD): 21.6%; mean terminal elimination half-life (T1/2) ([3]; human, inhaled or intranasal): 17.4 to 21.1 h; median time to achieve maximum CSJ117 serum concentration (Tmax) ([3]; human, inhaled or intranasal): 6 to 21 h; AUClast [3, 9]: 109 ng·h/mL; Cmax [3, 9]: 5.90 ng/mL; T1/2 [3, 9]: 18.5 h; Tmax [3, 9]: 21.0 h; AUClast [3, 10]: 127 ng·h/mL; Cmax [3, 10]: 5.65 ng/mL; T1/2 [3, 10]: 18.7 h; Tmax [3, 10]: 12.0 h; AUCinf [3, 11]: 597 ng·h/mL; AUClast [3, 11]: 353 ng·h/mL; CL/F [3, 11]: 15.6 L/h; Cmax [3, 11]: 12.5 ng/mL; T1/2 [3, 11]: 21.1 h; Tmax [3, 11]: 12.0 h; Vz/F [3, 11]: 481 L; AUCinf [3, 12]: 1710 ng·h/mL; AUClast [3, 12]: 1610 ng·h/mL; CL/F [3, 12]: 22.0 L/h; Cmax [3, 12]: 57.6 ng/mL; T1/2 [3, 12]: 17.4 h; Tmax [3, 12]: 6.00 h; Vz/F [3, 12]: 555 L; AUCinf [3, 13]: 2650 ng·h/mL; AUClast [3, 13]: 2500 ng·h/mL; CL/F [3, 13]: 28.5 L/h; Cmax [3, 13]: 61.4 ng/mL; T1/2 [3, 13]: 20.1 h; Tmax [3, 13]: 12.0 h; Vz/F [3, 13]: 815 L; AUCinf [3, 14]: 5750 ng·h/mL; AUClast [3, 14]: 5590 ng·h/mL; CL/F [3, 14]: 33.0 L/h; Cmax [3, 14]: 152 ng/mL; T1/2 [3, 14]: 18.2 h; Tmax [3, 14]: 9.00 h; Vz/F [3, 14]: 915 L; CSJ117 serum exposure versus dose [3]: increased in a dose-dependent manner; Accumulation ratio in humans ([4]; cynomolgus monkey, in vivo): 2.4 fold; Systemic accumulation ratio observed in monkeys ([4]; cynomolgus monkey, in vivo): 148 fold; Dose multiple: human equivalent dose of monkey NOAEL versus 4 mg QD ([4]; lung weight scaling): 51.5 fold; Subjects with adverse events (AEs) ([5]; 7/37 CSJ117 subjects, single inhaled doses 1-160 mg): 19 % of subjects; Deaths or serious adverse events ([5]; FIH study): no deaths or serious adverse events; mean T1/2 [6]: 18.6 to 22.4 h; AUCinf in Japanese relative to non-Japanese subjects [7]: 0.6-1.5 fold; Cmax in Japanese relative to non-Japanese subjects [7]: 0.5-1.1 fold; E, % [(B-A)/B]*100 ([8]; CSJ117 4 mg OD, LAR max fall % FEV1): 47.6%; LAR B-A (placebo minus treatment), Max fall % FEV1 ([8]; CSJ117 4 mg OD, PoC study): 8.42; LAR Treatment (A), Max fall % FEV1 ([8]; CSJ117 4 mg OD, PoC study): 9.28%; LAR time adjusted AUC 3-7 h, Difference (CSJ117-Placebo) (Table 6) ([8]; Day 42, 4 mg QD): −2.64%; LAR time adjusted AUC 3-7 h, Difference (CSJ117-Placebo) (Table 7) ([8]; Day 42, 4 mg QD): −2.90%; LAR time adjusted AUC 3-7 h, Difference (CSJ117-Placebo) (Table 8) ([8]; Day 42, 4 mg QD): −1.02%; LAR time adjusted AUC 3-7 h, Difference (CSJ117-Placebo) (Table 9) ([8]; Day 42, 4 mg QD): −4.70%; LAR time adjusted AUC 3-7 h, model-based mean estimate (Table 6) [8, 15]: 13.11%; LAR time adjusted AUC 3-7 h, model-based mean estimate (Table 7) [8, 15]: 6.46%; LAR time adjusted AUC 3-7 h, model-based mean estimate (Table 8) [8, 15]: 15.11%; LAR time adjusted AUC 3-7 h, model-based mean estimate (Table 9) [8, 15]: 27.85%; LAR time adjusted AUC 3-7 h, Difference (CSJ117-Placebo) (Table 6) ([8]; Day 84, 4 mg QD): −8.42%; LAR time adjusted AUC 3-7 h, Difference (CSJ117-Placebo) (Table 7) ([8]; Day 84, 4 mg QD): −7.18%; LAR time adjusted AUC 3-7 h, Difference (CSJ117-Placebo) (Table 8) ([8]; Day 84, 4 mg QD): −4.26%; LAR time adjusted AUC 3-7 h, Difference (CSJ117-Placebo) (Table 9) ([8]; Day 84, 4 mg QD): −5.41%; LAR time adjusted AUC 3-7 h, model-based mean estimate (Table 6) [8, 16]: 9.28%; LAR time adjusted AUC 3-7 h, model-based mean estimate (Table 7) [8, 16]: 4.20%; LAR time adjusted AUC 3-7 h, model-based mean estimate (Table 8) [8, 16]: 12.83%; LAR time adjusted AUC 3-7 h, model-based mean estimate (Table 9) [8, 16]: 25.48%; minimum absolute FEV1 between 3 and 7 hours compared with placebo ([8]; Day 84, p-value of 0.050): statistically less; AUC of the time-adjusted fall in FEV1 during the late response ([8]; day 84, 4 mg daily inhalation, vs placebo 11.38%, p=0.008): 4.20%; maximum fall % FEV1 during the late response ([8]; day 84, 4 mg daily inhalation, vs placebo 17.70%, P=0.029): 9.28%; fractional exhaled nitric oxide (FeNO) compared with placebo ([8]; over the 12-week treatment period, 4 mg QD): trend for a reduction
